Reference: US20200040086A1 (BERLIN CHEMIE, published 2020)

Key:
Experiment in all cases: peptide microarray of 8mer LY75 peptides, LY75_A1 at 1 µg/mL, anti-human IgG Alexa 647
[1] = molecular target: T1, LSCYKVFH
T1 construct: 8mer of LY75 on the peptide microarray, chart Region 2
T1 peptide: LSCYKVFH
Method: (§1) The peptide microarray analysis was performed by LC Sciences, Houston Tex., in brief the method comprised the following steps:—Contiguous 8mer peptides of LY75 protein having […] spanning residues 216 to 1666 of the full length LY75 protein were synthesized and immobilized on a microarray chip. The chip comprised three panels such that the experiment was performed in triplicate. The microarray was addressed with LY75_A1 to identify the peptides to which the antibody bound. The binding assay was performed under the following conditions:—
(§2) The microarray comprising the contiguous peptides in triplicate was washed with 1 mL of binding buffer at 4° C. for 20 min. It was then incubated with 1 μg/mL LY75_A1 in binding buffer (pH 7.0) at 4° C. for 2 hrs. The array was again washed with 0.5 mL of washing buffer at 4° C. for 30 min then incubated with 25 ng/mL anti-human IgG Alexa 647 conjugate in binding buffer (pH 7.0) at 4° C. for 1 hr. The array was again washed with 0.5 mL of washing buffer at 4° C. for 30 min.

[2] = molecular target: T2, PWRRGWHF
T2 construct: 8mer of LY75 on the peptide microarray, chart Region 3
T2 peptide: PWRRGWHF
Method: as §1, §2

[3] = molecular target: T3, RRGWHFYD
T3 construct: 8mer of LY75 on the peptide microarray, chart Region 3
T3 peptide: RRGWHFYD
Method: as §1, §2

[4] = molecular target: T4, YDDREFIY
T4 construct: 8mer of LY75 on the peptide microarray, chart Region 3
T4 peptide: YDDREFIY
Method: as §1, §2

[5] = molecular target: T5, DREFIYLR
T5 construct: 8mer of LY75 on the peptide microarray, chart Region 3
T5 peptide: DREFIYLR
Method: as §1, §2

[6] = molecular target: T6, EFIYLRPF
T6 construct: 8mer of LY75 on the peptide microarray, chart Region 3
T6 peptide: EFIYLRPF
Method: as §1, §2

[7] = molecular target: T7, DDHFTYSR
T7 construct: 8mer of LY75 on the peptide microarray, chart Region 4
T7 peptide: DDHFTYSR
Method: as §1, §2

[8] = molecular target: T8, HFTYSRYP
T8 construct: 8mer of LY75 on the peptide microarray, chart Region 4
T8 peptide: HFTYSRYP
Method: as §1, §2

[9] = molecular target: T9, SRYPWHRF
T9 construct: 8mer of LY75 on the peptide microarray, chart Region 4
T9 peptide: SRYPWHRF
Method: as §1, §2

[10] = molecular target: T10, PWHRFPVT
T10 construct: 8mer of LY75 on the peptide microarray, chart Region 4
T10 peptide: PWHRFPVT
Method: as §1, §2

[11] = molecular target: T11, ELTYSNFH
T11 construct: 8mer of LY75 on the peptide microarray, chart Region 5
T11 peptide: ELTYSNFH
Method: as §1, §2

[12] = molecular target: T12, TYSNFHPL
T12 construct: 8mer of LY75 on the peptide microarray, chart Region 5
T12 peptide: TYSNFHPL
Method: as §1, §2

[13] = molecular target: T13, TSCSERHF
T13 construct: 8mer of LY75 on the peptide microarray, chart Region 6
T13 peptide: TSCSERHF
Method: as §1, §2

[14] = molecular target: T14, FVSLCQKY
T14 construct: 8mer of LY75 on the peptide microarray, chart Region 6
T14 peptide: FVSLCQKY
Method: as §1, §2

[15] = molecular target: T15, VKYLNNLY
T15 construct: 8mer of LY75 on the peptide microarray, chart Region 7
T15 peptide: VKYLNNLY
Method: as §1, §2

[16] = molecular target: T16, EAVYFHQH
T16 construct: 8mer of LY75 on the peptide microarray, chart Region 8
T16 peptide: EAVYFHQH
Method: as §1, §2

[17] = molecular target: T17, AVYFHQHS
T17 construct: 8mer of LY75 on the peptide microarray, chart Region 8
T17 peptide: AVYFHQHS
Method: as §1, §2

[18] = molecular target: T18, KKLSRLTY
T18 construct: 8mer of LY75 on the peptide microarray, chart Region 9
T18 peptide: KKLSRLTY
Method: as §1, §2

[19] = molecular target: T19, LSRLTYSS
T19 construct: 8mer of LY75 on the peptide microarray, chart Region 9
T19 peptide: LSRLTYSS
Method: as §1, §2

[20] = molecular target: T20, SLSCYKVF
T20 construct: 8mer of LY75 on the peptide microarray, chart Region 2
T20 peptide: SLSCYKVF
Method: as §1, §2

[21] = molecular target: T21, NGSRWIQY
T21 construct: 8mer of LY75 on the peptide microarray, chart Region 10
T21 peptide: NGSRWIQY
Method: as §1, §2

[22] = molecular target: T22, GSRWIQYK
T22 construct: 8mer of LY75 on the peptide microarray, chart Region 10
T22 peptide: GSRWIQYK
Method: as §1, §2

[23] = molecular target: T23, QYKGHCYK
T23 construct: 8mer of LY75 on the peptide microarray, chart Region 10
T23 peptide: QYKGHCYK
Method: as §1, §2

[24] = molecular target: T24, YKGHCYKS
T24 construct: 8mer of LY75 on the peptide microarray, chart Region 10
T24 peptide: YKGHCYKS
Method: as §1, §2

Measured: binding result

B1: LY75_A1 (antibody, V domains shown)
VH: EVQLVESGGGLVKPGGSLRLSCAASGFTYSNAWMSWVRQAPGKGLEWVGRIKSKTDGGTTDYAAPVQGRFTISRDDSKNTLYLQMNSLKTEDTAVYYCTIFGVVSFDYWGQGTLVTVSS
VL: DVQMTQSPSSLSASVGDRVTITCRASQSISDYLSWYQQRPGKAPNLLIYAASNLKTGVPSRFSGSGSGTDFTLTISTLQPEDFATYYCQQSYRSPWTFGQGTKVEIKR
notes: detected with anti-human IgG in the microarray; also called antibody LY75_A1; LY75_A1 monoclonal antibody
binds: all assays above
